The series deals with the molecule itself. The experiment in a line: thioflavin-T fluorescence.

B1: TDP-43-low complexity domain (LCD) (aa: 274-414) (domain or fragment, UniProt Q13148 274-414, looked up)
chain: GRFGGNPGGFGNQGGFGNSRGGGAGLGNNQGSNMGGGMNFGAFSINPAMMAAAQAALQSSWGMMGMLASQQNQSGPSGNNQNQGNMQREPNQAFGSGNNSYSGSNSGAAIGWGSASNAGSGSGFNGGFGSSMDSKSSGWGM
With B1, the binding result was “binds”.

The record behind these values is doi:10.1101/2024.11.23.624964 (bioRxiv, 2024).
